Starred links: 1 amine or outer side, 2 acyl side, 3 side chain; linkers in the order of their positions; H or OH if unused. Positions of bridges follow the written chain, without caps; N, C: chain ends. Non-standard residues stand in square brackets, D forms with d. Primed or numbered codes have the meaning given here. PyrS2″ = (S)-3-amino-1-((pent-4-en-1-yloxy)carbonyl)pyrrolidine-3-carboxylic acid (stapling residue), C=CCCCOC(=O)N1CC[C@@](N[*:1])(C(=O)[*:2])C1; B5(30) = 2-amino-2-(pent-4-en-1-yl)hept-6-enoic acid (2,2-bis(4-pentenyl)glycine, stitching residue), C=CCCCC(CCCC=C)(N[*:1])C(=O)[*:2]; B5(4) = 2,2-bis(4-pentenyl)glycine = 2-amino-2-(pent-4-en-1-yl)hept-6-enoic acid (stitching residue), C=CCCCC(CCCC=C)(N[*:1])C(=O)[*:2]; B5(5) = 2,2-bis(4-pentenyl)glycine, 2-amino-2-(pent-4-en-1-yl)hept-6-enoic acid (stitching residue), C=CCCCC(CCCC=C)(N[*:1])C(=O)[*:2]; (3C)TriAzdLys = (R)-2-amino-6-(4-propyl-1H-1,2,3-triazol-1-yl)hexanoic acid, CCCc1cn(CCCC[C@@H](N[*:1])C(=O)[*:2])nn1; Phe(3-COOH) = N[C@@H](Cc1cccc(C(=O)O)c1)C(=O)O; Phe(2-CF3) = N[C@@H](Cc1ccccc1C(F)(F)F)C(=O)O; Bta = N[C@@H](Cc1csc2ccccc12)C(=O)O; Lys(iPr) = CC(C)NCCCC[C@H](N)C(=O)O; αAllylPro = C=CC[C@@]1(C(=O)O)CCCN1; tBuAla = CC(C)(C)C[C@H](N)C(=O)O; 3Thi = N[C@@H](Cc1ccsc1)C(=O)O; Cha = N[C@@H](CC1CCCCC1)C(=O)O; hSer = N[C@@H](CCO)C(=O)O
Biological target: full-length beta-Catenin (Uniprot ID P35222) (Homo sapiens (Human)) (UniProt P35222)
Assay: fluorescence polarization competition; 10 nM full-length beta-catenin + 10 nM 5FAM-TCF4(10-53) probe, peptide titrated 10 uM to 5 nM

Chain of full-length beta-Catenin (Uniprot ID P35222) (Homo sapiens (Human)) (P35222 2-781 limits assumed): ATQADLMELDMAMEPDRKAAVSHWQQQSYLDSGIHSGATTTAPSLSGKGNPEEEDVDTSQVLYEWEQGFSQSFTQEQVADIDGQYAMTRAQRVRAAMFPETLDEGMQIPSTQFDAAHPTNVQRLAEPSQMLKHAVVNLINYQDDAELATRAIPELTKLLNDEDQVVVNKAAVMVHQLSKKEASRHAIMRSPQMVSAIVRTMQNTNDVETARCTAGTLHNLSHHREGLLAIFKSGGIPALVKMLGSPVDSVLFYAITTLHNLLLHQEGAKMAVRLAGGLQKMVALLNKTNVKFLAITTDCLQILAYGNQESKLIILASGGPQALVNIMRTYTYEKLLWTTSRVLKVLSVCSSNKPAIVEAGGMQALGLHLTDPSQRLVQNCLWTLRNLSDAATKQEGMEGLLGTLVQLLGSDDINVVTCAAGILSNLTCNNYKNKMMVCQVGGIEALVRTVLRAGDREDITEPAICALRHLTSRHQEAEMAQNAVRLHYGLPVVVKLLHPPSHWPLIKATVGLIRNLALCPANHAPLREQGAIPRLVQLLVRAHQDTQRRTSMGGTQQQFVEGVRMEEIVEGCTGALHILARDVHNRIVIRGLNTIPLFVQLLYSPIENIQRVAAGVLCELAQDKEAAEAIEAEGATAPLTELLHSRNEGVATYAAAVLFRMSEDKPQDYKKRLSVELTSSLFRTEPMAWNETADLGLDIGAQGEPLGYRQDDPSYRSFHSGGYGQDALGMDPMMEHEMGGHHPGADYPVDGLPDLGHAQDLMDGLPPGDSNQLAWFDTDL

| Binder | IC50 [µM] |
| --- | --- |
| Ac-[αAllylPro]N[Cha][B5(30)]DQ[hSer]AFL[PyrS2″][3Thi][Bta]Q-NH2 (staple 1-4, 4-11; not fully specified; printed as Ac-PL3-Asn-Cha-B5-Asp-Gln-Hse-Ala-Phe-Leu-PyrS2-3Thi-BztA-Gln-NH2; also: staple -CH=CH- reduced to -CH2-CH2-) [I-2451] | 4.86 |
| Ac-[αAllylPro]N[Cha][B5(30)]DT[hSer]AFL[PyrS2″]F[Bta]K-NH2 (staple 1-4, 4-11) [I-2449] | 10 |
| Ac-[αAllylPro]N[Cha][B5(4)]DT[Lys(iPr)]AFL[PyrS2″]F[Bta]K-NH2 (staple 1-4, 4-11) [I-2450] | 0.063 |
| Ac-[αAllylPro]N[Cha][B5(30)]DT[hSer]AFL[PyrS2″]F[Bta]Q-NH2 (staple 1-4, 4-11; not fully specified; printed as Ac-PL3-Asn-Cha-B5-Asp-Thr-Hse-Ala-Phe-Leu-PyrS2-Phe-BztA-Gln-NH2) [I-2447] | 3.25 |
| Ac-[αAllylPro]D[tBuAla][B5(30)]D[Phe(3-COOH)]AAFL[PyrS2″][Phe(2-CF3)][Bta]S[(3C)TriAzdLys]-NH2 (staple 1-4, 4-11; not fully specified; printed as Ac-PL3-Asp-Npg-B5-Asp-3COOHF-Ala-Ala-Phe-Leu-PyrS2-2F3MeF-BztA-Ser-[3C]TriAzdLys-NH2) [I-2444] | 0.121 |
| Ac-[αAllylPro]N[Cha][B5(5)]DQ[Lys(iPr)]AFL[PyrS2″][3Thi][Bta]Q-NH2 (staple 1-4, 4-11; not fully specified; printed as Ac-PL3-Asn-Cha-B5-Asp-Gln-iPrLys-Ala-Phe-Leu-PyrS2-3Thi-BztA-Gln-NH2) [I-2446] | 0.093 |

Other lines, results leading:

| IC50 [µM] | Binder |
| --- | --- |
| 10 | Ac-[αAllylPro]N[Cha][B5(30)]DT[hSer]AFL[PyrS2″]F[Bta]K-NH2 (staple 1-4, 4-11; not fully specified; printed as Ac-PL3-Asn-Cha-B5-Asp-Thr-Hse-Ala-Phe-Leu-PyrS2-Phe-BztA-Lys-NH2; also: staple -CH=CH- reduced to -CH2-CH2-) [I-2454] |
| 10 | Ac-[αAllylPro]N[Cha][B5(30)]DT[Lys(iPr)]AFL[PyrS2″]F[Bta]K-NH2 (staple 1-4, 4-11; not fully specified; printed as Ac-PL3-Asn-Cha-B5-Asp-Thr-iPrLys-Ala-Phe-Leu-PyrS2-Phe-BztA-Lys-NH2; also: staple -CH=CH- reduced to -CH2-CH2-) [I-2455] |
| 0.052 | Ac-[αAllylPro]D[tBuAla][B5(4)]D[Phe(3-COOH)]QAFL[PyrS2″][Phe(2-CF3)][SbMeBztA]A-NH2 (staple 1-4, 4-11) [I-2457] |
| 0.056 | Ac-[αAllylPro]D[tBuAla][B5(4)]D[Phe(3-COOH)]QAFL[PyrS2″][Phe(2-CF3)][RbMeBztA]A-NH2 (staple 1-4, 4-11) [I-2459] |
| 7.2 | Ac-[αAllylPro]N[Cha][B5(30)]DQ[Lys(iPr)]AFL[PyrS2″][3Thi][Bta]Q-NH2 (staple 1-4, 4-11; not fully specified; printed as Ac-PL3-Asn-Cha-B5-Asp-Gln-iPrLys-Ala-Phe-Leu-PyrS2-3Thi-BztA-Gln-NH2; also: staple -CH=CH- reduced to -CH2-CH2-) [I-2452] |

— patent publication US20240116985A1, “STAPLED PEPTIDES AND METHODS THEREOF” (priority 2020, published 2024)
